Test results as given in paper PMC6138639 (2018).
Substitutions are numbered along the chain they refer to. Where no end group is shown, it is not given here. Me3 = N6,N6,N6-trimethyl (lysine)

B1: ZZZ3 ZZ domain (aa 800–903), GST cleaved (domain or fragment)
chain: KLKKQKLQQMQAESGFVQHVGFKCDNCGIEPIQGVRWHCQDCPPEMSLDFCDSCSDCLHETDIHKEDHQLEPIYRSETFLDRDYCVSQGTSYNYLDPNYFPANR
B2: H3K4ac peptide of the tryptophan fluorescence and NMR titration experiments (peptide)
chain: ARTK(Ac)QTAR
B3: unmodified H3 peptide of the tryptophan fluorescence and NMR titration experiments (peptide)
chain: ARTKQTARKSTG

Legend:
H3K4me3 (1-12) peptide = molecular target: T1, H3K4me3 (1-12) peptide (Homo sapiens); test: tryptophan fluorescence
T1 chain: H-ARTK(Me3)QTARKSTG

[1] = molecular target: T2, 15N-labeled WT ZZZ3-ZZ used in NMR titrations (human); test: NMR
T2 chain: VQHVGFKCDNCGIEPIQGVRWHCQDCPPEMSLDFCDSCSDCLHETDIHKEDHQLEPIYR

[2] = molecular target: T3, 15N-labeled ZZZ3-ZZ F821A used in NMR titrations (human); test: NMR
T3 chain: T2 chain with F6A

Binder | Kd (H3K4me3 (1-12) peptide) [µM] | Kd [1] [µM] | Kd [2] [µM]
B1 | 22 |  | 
B2 |  | 14 | 480
B3 |  | 42 | 400
